Assays:
[1] = target: cdH5-0 (dH5-0 supernatant after 10 min at 16,000-18,000*g) (influenza A virus H5N1 strain A/Vietnam/1203/04); experiment: ELISA, immobilized H5 form, excess epsilon-amino caproic acid
[2] = target: dH5-0 (hemagglutinin 5 of H5N1 strain A/Vietnam/1203/04 as supplied by Protein Sciences) (influenza A virus H5N1 strain A/Vietnam/1203/04); experiment: as above
[3] = target: dH5-II (misfolded H5, heat cycling at pH 2) (influenza A virus H5N1 strain A/Vietnam/1203/04); experiment: as above
[4] = target: fdH5-0 (ultrafiltrated dH5-0, flow-through of a 1,000 kDa cut-off filter) (influenza A virus H5N1 strain A/Vietnam/1203/04); experiment: as above
[5] = target: nOVA (untreated ovalbumin, 1 mg/ml in PBS) (chicken) (UniProt P01012); experiment: ELISA, immobilized OVA form, normalized to nOVA
[6] = target: cdH5-0 (dH5-0 supernatant after 10 min at 16,000-18,000*g) (influenza A virus H5N1 strain A/Vietnam/1203/04); experiment: ELISA, immobilized H5 form, normalized to cdH5-0
[7] = target: dH5-I (misfolded H5, heat cycling at pH 7) (influenza A virus H5N1 strain A/Vietnam/1203/04); experiment: ELISA, immobilized H5 form, normalized to cdH5-0
[8] = target: dH5-II (misfolded H5, heat cycling at pH 2) (influenza A virus H5N1 strain A/Vietnam/1203/04); experiment: ELISA, immobilized H5 form, normalized to cdH5-0
[9] = target: dH5-III (misfolded H5, about 16 h at 47.5 C) (influenza A virus H5N1 strain A/Vietnam/1203/04); experiment: ELISA, immobilized H5 form, normalized to cdH5-0
[10] = target: fdH5-0 (ultrafiltrated dH5-0, flow-through of a 1,000 kDa cut-off filter) (influenza A virus H5N1 strain A/Vietnam/1203/04); experiment: ELISA, immobilized H5 form, normalized to cdH5-0
[11] = target: dH5-0 (hemagglutinin 5 of H5N1 strain A/Vietnam/1203/04 as supplied by Protein Sciences) (influenza A virus H5N1 strain A/Vietnam/1203/04); experiment: ELISA, immobilized H5 form, normalized to cdH5-0; average of two measurements

UniProt P01012, sequence (P01012 2-386 limits assumed): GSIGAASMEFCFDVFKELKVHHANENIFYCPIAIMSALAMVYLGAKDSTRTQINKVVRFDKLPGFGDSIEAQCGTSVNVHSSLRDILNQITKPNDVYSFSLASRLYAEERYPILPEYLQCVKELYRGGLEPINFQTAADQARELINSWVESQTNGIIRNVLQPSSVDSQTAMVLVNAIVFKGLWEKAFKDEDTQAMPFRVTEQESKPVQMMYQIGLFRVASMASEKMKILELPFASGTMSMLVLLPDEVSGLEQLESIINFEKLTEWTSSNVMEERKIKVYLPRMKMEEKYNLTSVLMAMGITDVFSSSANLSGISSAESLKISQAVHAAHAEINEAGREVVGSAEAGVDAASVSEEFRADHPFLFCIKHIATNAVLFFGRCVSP

Substance | Bmax [1] | Kd [1] | Bmax [2] | Kd [2] | Bmax [3] | Kd [3] | Bmax [4] | Kd [4] | Normalized affinity, kD (%) [5] | Normalized affinity, kD (%) [6] | Normalized affinity, kD (%) [7] | Normalized affinity, kD (%) [8] | Normalized affinity, kD (%) [9] | Normalized affinity, kD (%) [10] | Normalized affinity, kD (%) [11]
tissue type plasminogen activator (tPA) (from UniProt P00750 36-562) (enzyme) | 0.36 | 102 nM | 0.32 | 96 nM | 0.07 | 19 nM | 0.37 | 342 nM |  |  |  |  |  |  | 
fourth and fifth finger domain of fibronectin (Fn F4-5) (from UniProt P02751 183-274) |  |  |  |  |  |  |  |  | 100% | 100% | 0% | 88% | 6% | 69% | 103%
